Reference: FireProtDB (doi:10.1021/bi002609i)

Conditions: Dictyostelium discoideum, reversible: yes
[1] = pH 5.59, 20 °C, Thermal, DSC, MES/NaMES 50 mM
[2] = pH 5.7, 20 °C, Urea, CD, KH2PO4/K2HPO4 50 mM
[3] = pH 5.7, 20 °C, Urea, CD, MES 50 mM
[4] = pH 5.7, 20 °C, Urea, Fluorescence, MES 50 mM
[5] = pH 5.75, 20 °C, Thermal, DSC, MES/NaMES 50 mM
[6] = pH 5.81, 20 °C, Thermal, DSC, MES/NaMES 50 mM
[7] = pH 6.03, 20 °C, Thermal, DSC, MES/NaMES 50 mM
[8] = pH 6.09, 20 °C, Thermal, DSC, MES/NaMES 50 mM
[9] = pH 6.2, 20 °C, Urea, Fluorescence, MES 50 mM, NaCl 400 mM
[10] = pH 6.2, 20 °C, Urea, Fluorescence, MES 50 mM
[11] = pH 6.25, 20 °C, Thermal, DSC, MES/NaMES 50 mM
[12] = pH 6.7, 20 °C, Urea, CD, KH2PO4/K2HPO4 50 mM
[13] = pH 6.7, 20 °C, Urea, Fluorescence, KH2PO4/K2HPO4 50 mM
[14] = pH 7.08, 5 °C, Urea, Fluorescence, KH2PO4/K2HPO4 50 mM
[15] = pH 7.7, 20 °C, Urea, CD, KH2PO4/K2HPO4 50 mM
[16] = pH 7.7, 20 °C, Urea, Fluorescence, KH2PO4/K2HPO4 50 mM
[17] = pH 8.15, 20 °C, Urea, Fluorescence, KH2PO4/K2HPO4 50 mM
[18] = pH 8.7, 20 °C, Urea, CD, Glycine/sodium glycine 50 mM
[19] = pH 8.7, 20 °C, Urea, Fluorescence, Glycine/sodium glycine 50 mM
[20] = pH 9.7, 20 °C, Urea, CD, Glycine/sodium glycine 50 mM
[21] = pH 9.7, 20 °C, Urea, Fluorescence, Glycine/sodium glycine 50 mM

Hisactophilin-1 wild type, sequence (P13231 whole entry, looked up): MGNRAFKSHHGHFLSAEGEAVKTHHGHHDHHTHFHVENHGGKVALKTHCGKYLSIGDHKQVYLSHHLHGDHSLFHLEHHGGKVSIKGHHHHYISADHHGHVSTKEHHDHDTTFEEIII

Hisactophilin-1 wild type (from UniProt P13231)
heat capacity change of unfolding [1]: 2.4 kcal/mol/K
unfolding free energy [1]: 1.5 kcal/mol
Tm (pH 5.59, Thermal, DSC, MES/NaMES 50 mM): 47 °C
denaturant m value [2]: 2.24 kcal/mol/M
denaturant midpoint (higher = more stable) [2]: 1.02 M
unfolding free energy [2]: 2.28 kcal/mol
denaturant m value [3]: 2.19 kcal/mol/M
denaturant midpoint (higher = more stable) [3]: 1.05 M
unfolding free energy [3]: 2.2 kcal/mol
denaturant m value [4]: 2.2 kcal/mol/M
denaturant midpoint (higher = more stable) [4]: 0.99 M
unfolding free energy [4]: 2.18 kcal/mol
heat capacity change of unfolding [5]: 2.4 kcal/mol/K
unfolding free energy [5]: 1.4 kcal/mol
Tm (pH 5.75, Thermal, DSC, MES/NaMES 50 mM): 48.9 °C
heat capacity change of unfolding [6]: 2.4 kcal/mol/K
unfolding free energy [6]: 2.1 kcal/mol
Tm (pH 5.81, Thermal, DSC, MES/NaMES 50 mM): 53.6 °C
heat capacity change of unfolding [7]: 2.4 kcal/mol/K
unfolding free energy [7]: 2.8 kcal/mol
Tm (pH 6.03, Thermal, DSC, MES/NaMES 50 mM): 58.3 °C
heat capacity change of unfolding [8]: 2.4 kcal/mol/K
unfolding free energy [8]: 4.1 kcal/mol
Tm (pH 6.09, Thermal, DSC, MES/NaMES 50 mM): 58.7 °C
denaturant m value [9]: 2.56 kcal/mol/M
denaturant midpoint (higher = more stable) [9]: 1.39 M
unfolding free energy [9]: 3.56 kcal/mol
denaturant m value [10]: 2.39 kcal/mol/M
denaturant midpoint (higher = more stable) [10]: 2.23 M
unfolding free energy [10]: 5.33 kcal/mol
heat capacity change of unfolding [11]: 2.4 kcal/mol/K
unfolding free energy [11]: 3.8 kcal/mol
Tm (pH 6.25, Thermal, DSC, MES/NaMES 50 mM): 61.7 °C
denaturant m value [12]: 1.63 kcal/mol/M
denaturant midpoint (higher = more stable) [12]: 3.1 M
unfolding free energy [12]: 5.04 kcal/mol
denaturant m value [13]: 1.62 kcal/mol/M
denaturant midpoint (higher = more stable) [13]: 3.08 M
unfolding free energy [13]: 5.1 kcal/mol
denaturant m value [14]: 1.67 kcal/mol/M
denaturant midpoint (higher = more stable) [14]: 2 M
unfolding free energy [14]: 3.34 kcal/mol
denaturant m value [15]: 1.63 kcal/mol/M
denaturant midpoint (higher = more stable) [15]: 4.31 M
unfolding free energy [15]: 7.11 kcal/mol
denaturant m value [16]: 1.59 kcal/mol/M
denaturant midpoint (higher = more stable) [16]: 4.26 M
unfolding free energy [16]: 6.78 kcal/mol
denaturant m value [17]: 1.65 kcal/mol/M
denaturant midpoint (higher = more stable) [17]: 4.61 M
unfolding free energy [17]: 7.59 kcal/mol
denaturant m value [18]: 1.46 kcal/mol/M
denaturant midpoint (higher = more stable) [18]: 5.18 M
unfolding free energy [18]: 7.55 kcal/mol
denaturant m value [19]: 1.49 kcal/mol/M
denaturant midpoint (higher = more stable) [19]: 5.19 M
unfolding free energy [19]: 7.75 kcal/mol
denaturant m value [20]: 1.53 kcal/mol/M
denaturant midpoint (higher = more stable) [20]: 4.58 M
unfolding free energy [20]: 7.03 kcal/mol
denaturant m value [21]: 1.65 kcal/mol/M
denaturant midpoint (higher = more stable) [21]: 4.76 M
unfolding free energy [21]: 7.85 kcal/mol
